Literature values in publication PMC11596140.

Target: Cdc4 (Saccharomyces cerevisiae) (UniProt P07834)
Test: intrinsic Trp fluorescence

UniProt P07834, sequence (P07834 whole entry): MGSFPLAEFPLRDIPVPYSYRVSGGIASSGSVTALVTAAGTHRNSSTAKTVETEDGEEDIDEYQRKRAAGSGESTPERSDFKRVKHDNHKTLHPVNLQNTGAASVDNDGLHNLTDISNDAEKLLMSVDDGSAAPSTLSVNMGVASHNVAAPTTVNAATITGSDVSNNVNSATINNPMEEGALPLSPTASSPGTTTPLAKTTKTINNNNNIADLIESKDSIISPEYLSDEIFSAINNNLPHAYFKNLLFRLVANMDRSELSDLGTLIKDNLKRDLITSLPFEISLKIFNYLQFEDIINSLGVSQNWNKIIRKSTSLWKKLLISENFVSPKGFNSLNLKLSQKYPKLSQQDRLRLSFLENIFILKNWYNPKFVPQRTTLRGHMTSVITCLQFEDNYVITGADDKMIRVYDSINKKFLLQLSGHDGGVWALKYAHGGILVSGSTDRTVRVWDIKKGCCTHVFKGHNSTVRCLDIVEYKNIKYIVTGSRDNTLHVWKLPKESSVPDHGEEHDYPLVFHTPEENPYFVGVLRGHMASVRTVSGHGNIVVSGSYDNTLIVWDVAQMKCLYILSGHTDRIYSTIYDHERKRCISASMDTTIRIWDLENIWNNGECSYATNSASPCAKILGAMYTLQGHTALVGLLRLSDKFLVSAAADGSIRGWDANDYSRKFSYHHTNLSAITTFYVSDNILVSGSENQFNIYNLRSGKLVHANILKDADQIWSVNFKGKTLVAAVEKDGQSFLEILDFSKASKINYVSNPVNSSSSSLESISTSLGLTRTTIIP

Kd: 0.6 µM
Substance: Sic1 (from UniProt P38634)
